Test results from patent US7235627B2 (Novo Nordisk A/S, priority 1996, dated 2007).

Tests used:
[1] = molecular target: T1, cloned human GLP-1 receptor (Homo sapiens, UniProt P43220); experiment: biochemical
[2] = molecular target: T1, cloned human GLP-1 receptor; experiment: cell-based or functional assay

T1 sequence (P43220 24-463): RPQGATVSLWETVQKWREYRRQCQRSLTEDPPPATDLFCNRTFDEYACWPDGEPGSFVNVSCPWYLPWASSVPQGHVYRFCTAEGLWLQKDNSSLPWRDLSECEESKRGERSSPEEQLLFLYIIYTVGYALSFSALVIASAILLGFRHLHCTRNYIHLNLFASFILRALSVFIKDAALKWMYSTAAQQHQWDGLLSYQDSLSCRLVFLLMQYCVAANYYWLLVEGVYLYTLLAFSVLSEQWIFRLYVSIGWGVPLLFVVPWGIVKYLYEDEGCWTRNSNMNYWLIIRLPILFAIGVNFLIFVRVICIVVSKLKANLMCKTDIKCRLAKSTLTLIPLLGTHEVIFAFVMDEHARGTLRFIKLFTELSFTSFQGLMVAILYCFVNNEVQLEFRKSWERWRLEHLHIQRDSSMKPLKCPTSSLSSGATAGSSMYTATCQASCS

| EC50, pM (stimulation of cAMP formation) [2] [pM] | Compound | EC50 [1] [pM] |
| --- | --- | --- |
| – | CC[C@H](C)[C@H](NC(=O)[C@H](Cc1ccccc1)NC(=O)[C@H](CCC(=O)O)NC(=O)[C@H](CCCNC(=N)N)NC(=O)[C@H](C)NC(=O)[C@H](C)NC(=O)[C@H](CCC(N)=O)NC(=O)CNC(=O)[C@H](CCC(=O)O)NC(=O)[C@H](CC(C)C)NC(=O)[C@H](Cc1ccc(O)cc1)NC(=O)[C@H](CO)NC(=O)[C@H](CO)NC(=O)[C@@H](NC(=O)[C@H](CC(=O)O)NC(=O)[C@H](CO)NC(=O)[C@@H](NC(=O)[C@H](Cc1ccccc1)NC(=O)[C@@H](NC(=O)CNC(=O)[C@H](CCC(=O)O)NC(=O)[C@H](C)NC(=O)[C@@H](N)Cc1c[nH]cn1)[C@@H](C)O)[C@@H](C)O)C(C)C)C(=O)N[C@@H](C)C(=O)N[C@@H](Cc1c[nH]c2ccccc12)C(=O)N[C@@H](CC(C)C)C(=O)N[C@H](C(=O)N[C@@H](CCCNC(=N)N)C(=O)NCC(=O)N[C@@H](CCCNC(=N)N)C(=O)NCC(=O)N[C@@H](CCCCNC(=O)CCCCCCCCCCC(=O)O)C(=O)O)C(C)C [Example 16, Arg^26,34Lys^38(N^ε-(ω-carboxyundecanoyl))-GLP-1(7–38)-OH] | 3.5 |
| 8.8 | Arg^26,34Lys^36(N^ε-(ω-carboxyheptanoyl))-GLP-1(7-36)-OH (peptide) | – |
| 3.5 | Arg^26,34Lys^38(N^ε-(ω-carboxyundecanoyl))-GLP-1(7-38)-OH (peptide) | – |
| 60 | Arg^34Lys^26(N^ε-(γ-glutamyl(N^α-hexadecanoyl)))-GLP-1(7-37)-OH (peptide) | – |
